For the experiment, the target named is HAMA血清タイプ1(Roche製、品番:1767275). The experiment in a line: forward sandwich ELISA, inhibition of HAMA bridging of anti-hCEA antibodies, blocker solution at 1 ug/ml. On the technique in general: ELISA stands for enzyme-linked immunosorbent assay.

マウスIgG(CHEMICON製、品番:PP54) (antibody) came in with a HAMA回避効果 of 61%.

As to “Heterophilic Blocking Reagent1 (SCANTIBODIES LABORATORY，INC.製、品番:3KC534−075)”, the HAMA回避率 is 68%.

Turning to “MAK33−IgG1(Roche製、品番:1200941) (antibody)”, the HAMA回避率 was 69%.

The record behind these values is JP2011016773A.
